From paper PMC3662692

T1: caveolin-1 (human (endogenous in Chang cells)), Q03135
T1 chain: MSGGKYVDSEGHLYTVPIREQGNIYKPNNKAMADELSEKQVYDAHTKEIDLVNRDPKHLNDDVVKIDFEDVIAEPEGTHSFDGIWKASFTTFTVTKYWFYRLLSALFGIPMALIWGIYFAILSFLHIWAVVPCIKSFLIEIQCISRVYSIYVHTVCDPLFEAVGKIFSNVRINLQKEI


How the values were obtained:
[1] = molecular target: p85 regulatory subunit of PI3 kinase (PI3K-p85; p85α in Table 1) (UniProt P27986); assay: biotin-peptide streptavidin-agarose pull-down, Western blot; settings: reference: non-phosphorylated Cav1 peptide; sites Y14
[2] = molecular target: phospholipase Cγ1 (PLCγ1) (UniProt P19174); assay: as above; settings: reference: non-phosphorylated Cav1 peptide; sites Y14
[3] = molecular target: T1, caveolin-1 (human (endogenous in Chang …)); assay: co-IP; endogenous Cav1 precipitated with anti-Caveolin antibody (BD Transduction) and Protein G magnetic beads from Chang cell lysates (20 mM Tris, 150 mM NaCl, 1% Triton-X-100, pH 7.5); cells not infected or infected with N927 (PorBIA, P-) at MOI 20 for 1 h; in one experiment PLCγ1 inhibitor U73122 (10 µM) added 30 min before infection; Western blot; settings: remark: other sources report otherwise
[4] = molecular target: T1, caveolin-1 (human (endogenous in Chang …)); assay: co-IP; as a1, but Chang cells infected with N138 (PorBIB, P+) at MOI 20 for 1 h; endogenous Cav1 precipitated, Western blot; settings: remark: other sources report otherwise

relative amount of Vav2 in the Cav1 precipitate, cells infected with N927 (non-infected cells = 100%) [3] | relative amount of Vav2 in the Cav1 precipitate, non-infected cells (reference) [3] | relative amount of Vav2 in the Cav1 precipitate, cells infected with N138 (non-infected cells = 100%) [4] | Molecule | binding against the reference [1] | binding against the reference [2]
 |  |  | caveolin-1 (Cav1) 7-21 (from UniProt Q03135) Cav1 pY14 peptide | gained | gained
50% | 100% | 99% | Vav2, P52735 1-878 (natural protein) MEQWRQCGRWLIDCKVLPPNHRVVWPSAVVFDLAQALRDGVLLCQLLHNLSPGSIDLKDINFRPQMSQFLCLKNIRTFLKVCHDKFGLRNSELFDPFDLFDVRDFGKVISAVSRLSLHSIAQNKGIRPFPSEETTENDDDVYRSLEELADEHDLGEDIYDCVPCEDGGDDIYEDIIKVEVQQPMIRYMQKMGMTEDDKRNCCLLEIQETEAKYYRTLEDIEKNYMSPLRLVLSPADMAAVFINLEDLIKVHHSFLRAIDVSVMVGGSTLAKVFLDFKERLLIYGEYCSHMEHAQNTLNQLLASREDFRQKVEECTLKVQDGKFKLQDLLVVPMQRVLKYHLLLKELLSHSAERPERQQLKEALEAMQDLAMYINEVKRDKETLRKISEFQSSIENLQVKLEEFGRPKIDGELKVRSIVNHTKQDRYLFLFDKVVIVCKRKGYSYELKEIIELLFHKMTDDPMNNKDVKKSHGKMWSYGFYLIHLQGKQGFQFFCKTEDMKRKWMEQFEMAMSNIKPDKANANHHSFQMYTFDKTTNCKACKMFLRGTFYQGYMCTKCGVGAHKECLEVIPPCKFTSPADLDASGAGPGPKMVAMQNYHGNPAPPGKPVLTFQTGDVLELLRGDPESPWWEGRLVQTRKSGYFPSSSVKPCPVDGRPPISRPPSREIDYTAYPWFAGNMERQQTDNLLKSHASGTYLIRERPAEAERFAISIKFNDEVKHIKVVEKDNWIHITEAKKFDSLLELVEYYQCHSLKESFKQLDTTLKYPYKSRERSASRASSRSPASCASYNFSFLSPQGLSFASQGPSAPFWSVFTPRVIGTAVARYNFAARDMRELSLREGDVVRIYSRIGGDQGWWKGETNGRIGWFPSTYVEEEGIQ |  | 
